Assay results: patent US20070111265A1 (published 2007)
Blank lines part the entries; values can stand above or below the binder they belong to.

How the values were obtained:
[1] = target: T1, human MR LBD (residues 727-984) containing a C808S mutation, 6xHis-GST fusion protein (;human, UniProt P08235 727-984); assay: AlphaScreen competition; corticosterone
T1 chain: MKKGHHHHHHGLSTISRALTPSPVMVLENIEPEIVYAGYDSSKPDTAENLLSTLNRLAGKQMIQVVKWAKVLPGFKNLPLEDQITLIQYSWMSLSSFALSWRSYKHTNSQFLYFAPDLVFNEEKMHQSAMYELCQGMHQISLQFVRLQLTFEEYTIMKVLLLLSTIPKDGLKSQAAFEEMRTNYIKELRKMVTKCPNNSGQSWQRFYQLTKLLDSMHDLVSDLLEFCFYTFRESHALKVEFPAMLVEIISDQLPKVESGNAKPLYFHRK

[2] = target: T1, human MR LBD (residues 727-984) …; assay: AlphaScreen peptide competition; corticosterone

- IC50 [1]: 40 nM
B1: PGC1α-(1+2), human PGC1α fragment (residues 1-220) containing both LXXLL motifs, 6xHis-GST fusion protein (other)
chain: MAWDMCNQDSESVWSDIECAALVGEDQPLCPDLPELDLSELDVNDLDTDSFLGGLKWCSDQSEIISNQYNNEPSNIFEKIDEENEANLLAVLTETLDSLPVDEDGLPSFDALTDGDVTTDNEASPSSMPDGTPPPQEAEEPSLLKKLLLAPANTQLSYNECSGLSTQNHANHNHRIRTNPAIVKTENSWSNKAKSICQQQKPQRRPCSELLKYLTTNDDP

- IC50 [2]: 900 nM
B2: unlabeled PGC1α-1 peptide (peptide)
peptide: AEEPSLLKKLLLAPA

- IC50 [2]: 1100 nM
B3: unlabeled PGC1α-2 peptide (peptide)
peptide: RRPCSELLKYLTTND
